Experimental findings from patent US20240076330A1 are described below.

In experiment [1] the target is IL-6 receptor (IL6R) (human) (UniProt P08887). As to the kind of experiment: cell-based or functional assay.
Another experiment addresses IFNGR1 (human) (UniProt P15260). In words: cell-based or functional assay.
Chain of UniProt P15260 (P15260 18-489): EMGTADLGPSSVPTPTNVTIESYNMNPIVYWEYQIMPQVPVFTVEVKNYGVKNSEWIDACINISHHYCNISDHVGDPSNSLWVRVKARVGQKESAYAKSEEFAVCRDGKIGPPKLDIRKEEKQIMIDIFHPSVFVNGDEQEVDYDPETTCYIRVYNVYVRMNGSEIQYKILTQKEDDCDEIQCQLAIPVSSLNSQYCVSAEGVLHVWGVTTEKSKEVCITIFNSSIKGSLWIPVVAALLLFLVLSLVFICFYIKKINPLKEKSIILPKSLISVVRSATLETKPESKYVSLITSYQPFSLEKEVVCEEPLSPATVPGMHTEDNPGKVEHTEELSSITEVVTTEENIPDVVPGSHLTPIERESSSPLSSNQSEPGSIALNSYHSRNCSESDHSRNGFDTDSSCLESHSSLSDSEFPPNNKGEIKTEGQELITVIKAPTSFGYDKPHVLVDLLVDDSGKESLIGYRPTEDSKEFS

Chain of UniProt P08887 (P08887 20-468): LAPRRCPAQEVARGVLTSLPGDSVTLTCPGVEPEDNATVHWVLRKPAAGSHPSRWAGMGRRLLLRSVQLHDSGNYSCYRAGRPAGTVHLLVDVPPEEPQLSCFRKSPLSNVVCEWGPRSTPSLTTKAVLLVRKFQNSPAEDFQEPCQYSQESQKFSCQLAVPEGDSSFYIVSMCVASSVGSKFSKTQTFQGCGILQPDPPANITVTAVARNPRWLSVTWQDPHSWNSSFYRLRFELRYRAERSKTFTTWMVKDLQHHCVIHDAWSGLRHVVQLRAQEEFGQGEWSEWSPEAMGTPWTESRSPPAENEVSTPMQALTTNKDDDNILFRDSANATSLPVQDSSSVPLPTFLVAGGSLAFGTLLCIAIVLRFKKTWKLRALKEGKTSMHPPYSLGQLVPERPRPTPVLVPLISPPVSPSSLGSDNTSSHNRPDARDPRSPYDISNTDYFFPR

In experiment [1], “IL-6 (from UniProt P05231 30-212) (ligand)” yielded a pSTAT1 levels after IL-6 in THP1-Cas9 cells with gRNAs targeting IL6R (fold reduction) of 2 and a pSTAT3 levels after IL-6 in THP1-Cas9 cells with gRNAs targeting IL6R (fold reduction) of 2.

In the case of “IFNγ (from UniProt P01579 24-166) (ligand)”, in the experiment with IFNGR1 (human), the pSTAT1 levels after IFNγ in THP1-Cas9 cells with gRNAs targeting IFNGR1 (fold decrease) was 15 and the percent of cells with increased pSTAT1 after IFNγ, clusters with gRNAs targeting IFNGR1 turned out to be 25%.
